# Results published in patent US20210380657A1 (COUNCIL OF THE QUEENSLAND INSTITUTE OF MEDICAL RESEARCH, published 2021).
# Molecular target: HLA-A*24:02-[…] (human; Epstein Barr Virus)
# Experiment: HLA-peptide multimer staining and single-cell sorting of CD8+ T cells, paired TCR sequencing; … multimer for this donor per FIG. 3 legend
row,Binder,binding result
1,"TCR Clone 2 of Donor Y6W in Table 4 (TCR, V domains shown, also called Donor Y6W Clone 2) V domain 1: GQQVMQIPQYQHVQEGEDFTTYCNSSTTLSNIQWYKQRPGGHPVFLIQLVKSGEVKKQKRLTFQFGEAKKNSSLHITATQTTDVGTYFCAGERGSTLGRLYFGRGTQLTVWP V domain 2: DTGVSQNPRHKITKRGQNVTFRCDPISEHNRLYWYRQTLGQGPEFLTYFQNEAQLEKSRLLSDRFSAERPKGSFSTLEIQRTEQGDSAMYLCASSSLDRGDYEQYFGPGTRLTVTE",binds
2,"TCR Clone 3 of Donor Y6W in Table 4 (TCR, V domains shown, also called Donor Y6W Clone 3) V domain 1: SQQGEEDPQALSIQEGENATMNCSYKTSINNLQWYRQNSGRGLVHLILIRSNEREKHSGRLRVTLDTSKKSSSLLITASRAADTASYFCAPDRPDTDKLIFGTGTRLQVFP V domain 2: DTGVSQNPRHKITKRGQNVTFRCDPISEHNRLYWYRQTLGQGPEFLTYFQNEAQLEKSRLLSDRFSAERPKGSFSTLEIQRTEQGDSAMYLCASQNRREGRSEQFFGPGTRLTVLE",binds
3,"TCR Clone 1 of Donor Y6W in Table 4 (TCR, V domains shown, also called Donor Y6W Clone 1) V domain 1: SLAKTTQPISMDSYEGQEVNITCSHNNIATNDYITWYQQFPSQGPRFIIQGYKTKVTNEVASLFIPADRKSSTLSLPRVSLSDTAVYYCLVVPFGGYNKLIFGAGTRLAVHP V domain 2: SAVISQKPSRDICQRGTSLTIQCQVDSQVTMMFWYRQQPGQSLTLIATANQGSEATYESGFVIDKFPISRPNLTFSTLTVSNMSPEDSSIYLCSVGEGTSGYESYNEQFFGPGTRLTVLE",binds
